Test results as given in patent US20120156201A1 (PROTAB, published 2012).

Experiments:
[1] = target: T1, peptide-6 (HSP65-derived peptide, GPKGRNVVLEKKWGAP) (Mycobacterium tuberculosis); test: ELISA, peptide-6 coated at 10 µg/ml
T1 construct: also called peptide-6 antigen; 15
T1 peptide: GPKGRNVVLEKKWGAP

[2] = target: T1, peptide-6 (HSP65-derived peptide, …); test: ELISA, peptide-6 coated at 10 µg/ml, anti-human IgG kappa peroxidase
[3] = target: T2, human adenylyl cyclase-associated protein 1 (CAP1) fused to His tag at the N-terminus (human, UniProt Q01518 1-475); test: Western blot of over-expressed and purified His-CAP1
T2 construct: also called His-CAP1; His-tagged CAP1; not shown: 6xHIS tag at the N terminus from a modified Pet22b vector

[4] = target: T1, peptide-6 (HSP65-derived peptide, …); test: ELISA, peptide-6 coated plate
[5] = target: T1, peptide-6 (HSP65-derived peptide, …); test: ELISA, plates precoated with 10 µg/ml peptide-6, goat anti-human IgG peroxidase
[6] = target: T1, peptide-6 (HSP65-derived peptide, …); test: ELISA, plates precoated with 10 µg/ml peptide-6, goat anti-mouse IgM peroxidase

T2 sequence (Q01518 whole entry, the tested form may be a part): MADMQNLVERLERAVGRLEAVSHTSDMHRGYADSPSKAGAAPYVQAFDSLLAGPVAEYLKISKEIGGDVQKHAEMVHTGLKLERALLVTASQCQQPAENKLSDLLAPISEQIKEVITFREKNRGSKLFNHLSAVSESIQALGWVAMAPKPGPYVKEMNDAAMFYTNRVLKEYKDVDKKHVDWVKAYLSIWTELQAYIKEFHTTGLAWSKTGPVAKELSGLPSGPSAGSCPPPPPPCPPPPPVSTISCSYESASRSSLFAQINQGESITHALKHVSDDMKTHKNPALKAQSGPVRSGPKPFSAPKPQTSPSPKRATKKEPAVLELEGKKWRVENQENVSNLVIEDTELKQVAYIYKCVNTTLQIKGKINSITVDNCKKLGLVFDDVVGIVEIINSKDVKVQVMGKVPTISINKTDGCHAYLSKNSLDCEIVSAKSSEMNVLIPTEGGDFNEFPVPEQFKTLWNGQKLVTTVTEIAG

B1: humanized anti-peptide-6 antibody variant VH2/VK2 (antibody, V domains shown)
VH: QVTLKESGPALVKPTQTLTLTCSFSGFSLSTSNMGVGWIRQPAGKGLEWLLHILWNDSKYYNPALKSRLTISKDTYKNQVVLTMTNMDPVDTATYYCARMGGYYGNYGYYAMDYWGQGTLVTVSS
VL: QIVLTQSPATLSLSPGERATMSCTASSSVSSSYLHWYQQKPGKAPKLWIYSTSNLASGVPSRFSGSGSGTDYTLTISSLQPEDFATYYCHQYHRSPPTFGQGTKLEIK
Question: Does B1 bind [1]?
Answer: Result: binds

B2: humanized anti-peptide-6 antibody variant VH3/VK2 (antibody, V domains shown)
VH: QVTLKESGPALVKPTQTLTLTCSFSGFSLSTSNMGVGWIRQPAGKGLEWLLHILWNDSKYYNPALKSRLTISKDTSKNQVVLTMTNMDPVDTATYYCARMGGYYGNYGYYAMDYWGQGTLVTVSS
VL: QIVLTQSPATLSLSPGERATMSCTASSSVSSSYLHWYQQKPGKAPKLWIYSTSNLASGVPSRFSGSGSGTDYTLTISSLQPEDFATYYCHQYHRSPPTFGQGTKLEIK
Question: Does B2 bind [2]?
Answer: Result: binds

B3: humanized anti-peptide-6 antibody variant VH3/VK3 (antibody, V domains shown)
VH: QVTLKESGPALVKPTQTLTLTCSFSGFSLSTSNMGVGWIRQPAGKGLEWLLHILWNDSKYYNPALKSRLTISKDTSKNQVVLTMTNMDPVDTATYYCARMGGYYGNYGYYAMDYWGQGTLVTVSS
VL: QIVLTQSPATLSLSPGERATLSCTASSSVSSSYLHWYQQKPGKAPKLWIYSTSNLASGVPSRFSGSGSGTDYTLTISSLQPEDFATYYCHQYHRSPPTFGQGTKLEIK
Question: Does B3 bind [2]?
Answer: Result: binds

B4: humanized anti-peptide-6 antibody variant VH2/VK3 (antibody, V domains shown)
VH: QVTLKESGPALVKPTQTLTLTCSFSGFSLSTSNMGVGWIRQPAGKGLEWLLHILWNDSKYYNPALKSRLTISKDTYKNQVVLTMTNMDPVDTATYYCARMGGYYGNYGYYAMDYWGQGTLVTVSS
VL: QIVLTQSPATLSLSPGERATLSCTASSSVSSSYLHWYQQKPGKAPKLWIYSTSNLASGVPSRFSGSGSGTDYTLTISSLQPEDFATYYCHQYHRSPPTFGQGTKLEIK
notes: also called humanized VH2/VK3; PRO01 VH2/VK3
Question: Does B4 bind [1]?
Answer: Result: binds

Question: Does B4 bind [3]?
Answer: Result: binds

B5: humanized anti-peptide-6 antibody variant VH1/VK3 (antibody, V domains shown)
VH: QVTLKESGPAIVKPTQTLTLTCSFSGFSLSTSNMGVGWIRQPSGKGLEWLLHILWNDSKYYNPALKSRLTISKDTYKNQVVLTMTNMDPVDTATYYCARMGGYYGNYGYYAMDYWGQGTSVTVSS
VL: QIVLTQSPATLSLSPGERATLSCTASSSVSSSYLHWYQQKPGKAPKLWIYSTSNLASGVPSRFSGSGSGTDYTLTISSLQPEDFATYYCHQYHRSPPTFGQGTKLEIK
Question: Does B5 bind [4]?
Answer: Result: binds

B6: humanized anti-peptide-6 antibody variant VH3/VK1 (antibody, V domains shown)
VH: QVTLKESGPALVKPTQTLTLTCSFSGFSLSTSNMGVGWIRQPAGKGLEWLLHILWNDSKYYNPALKSRLTISKDTSKNQVVLTMTNMDPVDTATYYCARMGGYYGNYGYYAMDYWGQGTLVTVSS
VL: QIVLTQSPAILSLSPGERATMSCTASSSVSSSYLHWYQQKPGKAPKLWIYSTSNLASGVPSRFSGSGSGTDYTLTISSLQAEDFATYYCHQYHRSPPTFGQGTKLEIK
Question: Does B6 bind [4]?
Answer: Result: binds

B7: humanized anti-peptide-6 antibody variant VH1/VK2 (antibody, V domains shown)
VH: QVTLKESGPAIVKPTQTLTLTCSFSGFSLSTSNMGVGWIRQPSGKGLEWLLHILWNDSKYYNPALKSRLTISKDTYKNQVVLTMTNMDPVDTATYYCARMGGYYGNYGYYAMDYWGQGTSVTVSS
VL: QIVLTQSPATLSLSPGERATMSCTASSSVSSSYLHWYQQKPGKAPKLWIYSTSNLASGVPSRFSGSGSGTDYTLTISSLQPEDFATYYCHQYHRSPPTFGQGTKLEIK
Question: Does B7 bind [4]?
Answer: Result: binds

B8: humanized anti-peptide-6 antibody variant VH4/VK1 (antibody, V domains shown)
VH: QVTLKESGPALVKPTQTLTLTCSFSGFSLSTSNMGVGWIRQPAGKGLEWLAHILWNDSKYYNPALKSRLTISKDTSKNQVVLTMTNMDPVDTATYYCARMGGYYGNYGYYAMDYWGQGTLVTVSS
VL: QIVLTQSPAILSLSPGERATMSCTASSSVSSSYLHWYQQKPGKAPKLWIYSTSNLASGVPSRFSGSGSGTDYTLTISSLQAEDFATYYCHQYHRSPPTFGQGTKLEIK
Question: Does B8 bind [2]?
Answer: Result: binds

B9: humanized anti-peptide-6 antibody variant VH2/VK1 (antibody, V domains shown)
VH: QVTLKESGPALVKPTQTLTLTCSFSGFSLSTSNMGVGWIRQPAGKGLEWLLHILWNDSKYYNPALKSRLTISKDTYKNQVVLTMTNMDPVDTATYYCARMGGYYGNYGYYAMDYWGQGTLVTVSS
VL: QIVLTQSPAILSLSPGERATMSCTASSSVSSSYLHWYQQKPGKAPKLWIYSTSNLASGVPSRFSGSGSGTDYTLTISSLQAEDFATYYCHQYHRSPPTFGQGTKLEIK
Question: Does B9 bind [4]?
Answer: Result: binds

B10: humanized anti-peptide-6 antibody variant VH1/VK1 (antibody, V domains shown)
VH: QVTLKESGPAIVKPTQTLTLTCSFSGFSLSTSNMGVGWIRQPSGKGLEWLLHILWNDSKYYNPALKSRLTISKDTYKNQVVLTMTNMDPVDTATYYCARMGGYYGNYGYYAMDYWGQGTSVTVSS
VL: QIVLTQSPAILSLSPGERATMSCTASSSVSSSYLHWYQQKPGKAPKLWIYSTSNLASGVPSRFSGSGSGTDYTLTISSLQAEDFATYYCHQYHRSPPTFGQGTKLEIK
Question: Does B10 bind [4]?
Answer: Result: binds

B11: humanized anti-peptide-6 antibody variant VH4/VK3 (antibody, V domains shown)
VH: QVTLKESGPALVKPTQTLTLTCSFSGFSLSTSNMGVGWIRQPAGKGLEWLAHILWNDSKYYNPALKSRLTISKDTSKNQVVLTMTNMDPVDTATYYCARMGGYYGNYGYYAMDYWGQGTLVTVSS
VL: QIVLTQSPATLSLSPGERATLSCTASSSVSSSYLHWYQQKPGKAPKLWIYSTSNLASGVPSRFSGSGSGTDYTLTISSLQPEDFATYYCHQYHRSPPTFGQGTKLEIK
Question: Does B11 bind [2]?
Answer: Result: binds

B12: humanized anti-peptide-6 antibody variant VH4/VK2 (antibody, V domains shown)
VH: QVTLKESGPALVKPTQTLTLTCSFSGFSLSTSNMGVGWIRQPAGKGLEWLAHILWNDSKYYNPALKSRLTISKDTSKNQVVLTMTNMDPVDTATYYCARMGGYYGNYGYYAMDYWGQGTLVTVSS
VL: QIVLTQSPATLSLSPGERATMSCTASSSVSSSYLHWYQQKPGKAPKLWIYSTSNLASGVPSRFSGSGSGTDYTLTISSLQPEDFATYYCHQYHRSPPTFGQGTKLEIK
Question: Does B12 bind [2]?
Answer: Result: binds

B13: chimeric mouse-human anti-peptide-6 IgG1 antibody (antibody, V domains shown)
VH: QVTLKESGPGILQPSQTLSLTCSFSGFSLSTSNMGVGWIRQPSGKGLEWLLHILWNDSKYYNPALKSRLTISKDTYNNQVFLKIANVDTADTATYYCARMGGYYGNYGYYAMDYWGQGTSVTVSS
VL: QIVLTQSPAIMSASLGERVTMTCTASSSVSSSYLHWYQQKPGSSPKLWIYSTSNLASGVPARFSGSGSGTSYSLTISSMEAEDAATYYCHQYHRSPPTFGSGTKLEIK
notes: also called chimeric mouse IgG1; chimeric mouse antibody
Question: Does B13 bind [5]?
Answer: Result: binds

B14: mouse anti-peptide-6 monoclonal antibody (IgM) (antibody, V domains shown)
VH: QVTLKESGPGILQPSQTLSLTCSFSGFSLSTSNMGVGWIRQPSGKGLEWLLHILWNDSKYYNPALKSRLTISKDTYNNQVFLKIANVDTADTATYYCARMGGYYGNYGYYAMDYWGQGTSVTVSS
VL: QIVLTQSPAIMSASLGERVTMTCTASSSVSSSYLHWYQQKPGSSPKLWIYSTSNLASGVPARFSGSGSGTSYSLTISSMEAEDAATYYCHQYHRSPPTFGSGTKLEIK
notes: also called mouse-IgM
Question: Does B14 bind [6]?
Answer: Result: binds
